Literature values, collected in article PMC10502159.
One block for each substance: values may come before it.

Tests used:
[1] = molecular target: TLR4 1-631 (Homo sapiens) (UniProt O00206); assay: SPR
[2] = molecular target: pCTS-L (procathepsin L) (Homo sapiens) (UniProt P07711); assay: OpenSPR
[3] = molecular target: TLR4 (Homo sapiens) (UniProt O00206); assay: OpenSPR
[4] = molecular target: EGFR ECD (Homo sapiens) (UniProt P00533); assay: SPR (OpenSPR)
[5] = molecular target: EGFR ECD (Homo sapiens) (UniProt P00533); assay: SPR (Biacore)

dermcidin, sequence (P81605 20-110): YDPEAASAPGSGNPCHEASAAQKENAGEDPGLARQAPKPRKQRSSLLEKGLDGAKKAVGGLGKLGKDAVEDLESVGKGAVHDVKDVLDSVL
pCTS-L (procathepsin L) (Homo sapiens), sequence (P07711 18-333): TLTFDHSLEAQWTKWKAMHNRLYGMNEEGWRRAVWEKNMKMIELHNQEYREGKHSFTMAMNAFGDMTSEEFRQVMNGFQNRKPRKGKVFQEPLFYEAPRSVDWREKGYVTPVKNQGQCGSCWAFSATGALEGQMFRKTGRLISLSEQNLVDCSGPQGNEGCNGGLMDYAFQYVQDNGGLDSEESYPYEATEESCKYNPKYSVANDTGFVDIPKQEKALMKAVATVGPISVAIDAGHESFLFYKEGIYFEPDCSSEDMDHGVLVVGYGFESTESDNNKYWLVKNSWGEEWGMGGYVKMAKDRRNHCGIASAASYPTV
pCTS-L (procathepsin L), sequence (P07711 18-333): as above
TLR4 1-631 (Homo sapiens), sequence (O00206 1-631): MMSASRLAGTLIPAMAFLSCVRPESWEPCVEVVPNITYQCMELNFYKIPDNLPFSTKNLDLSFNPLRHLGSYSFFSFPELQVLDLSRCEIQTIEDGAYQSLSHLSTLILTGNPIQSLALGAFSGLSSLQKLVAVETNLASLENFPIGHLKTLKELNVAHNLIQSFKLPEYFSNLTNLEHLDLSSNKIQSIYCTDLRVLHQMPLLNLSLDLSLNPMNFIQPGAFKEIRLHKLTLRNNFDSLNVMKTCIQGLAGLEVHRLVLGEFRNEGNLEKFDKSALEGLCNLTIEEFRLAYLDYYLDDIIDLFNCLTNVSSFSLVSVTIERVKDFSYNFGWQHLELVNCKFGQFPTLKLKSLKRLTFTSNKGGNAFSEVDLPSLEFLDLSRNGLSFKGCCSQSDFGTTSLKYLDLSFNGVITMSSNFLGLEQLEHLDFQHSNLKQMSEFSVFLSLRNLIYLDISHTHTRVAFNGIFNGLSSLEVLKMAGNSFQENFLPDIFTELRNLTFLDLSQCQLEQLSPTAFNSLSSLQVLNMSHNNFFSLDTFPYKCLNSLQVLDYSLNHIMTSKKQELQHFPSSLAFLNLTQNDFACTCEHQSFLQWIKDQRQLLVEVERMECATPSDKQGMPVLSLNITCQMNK
procathepsin L (pCTS-L) 17-333, sequence (P07711 17-333): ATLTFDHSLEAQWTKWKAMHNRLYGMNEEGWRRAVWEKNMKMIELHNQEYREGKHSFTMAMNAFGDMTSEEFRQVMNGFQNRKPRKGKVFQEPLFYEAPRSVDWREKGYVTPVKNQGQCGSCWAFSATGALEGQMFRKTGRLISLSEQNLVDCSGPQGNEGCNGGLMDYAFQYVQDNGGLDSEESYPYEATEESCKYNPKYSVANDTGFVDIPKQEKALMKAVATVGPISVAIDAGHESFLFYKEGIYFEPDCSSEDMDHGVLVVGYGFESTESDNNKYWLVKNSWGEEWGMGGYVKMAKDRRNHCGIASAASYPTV
TLR4, sequence (O00206 24-631): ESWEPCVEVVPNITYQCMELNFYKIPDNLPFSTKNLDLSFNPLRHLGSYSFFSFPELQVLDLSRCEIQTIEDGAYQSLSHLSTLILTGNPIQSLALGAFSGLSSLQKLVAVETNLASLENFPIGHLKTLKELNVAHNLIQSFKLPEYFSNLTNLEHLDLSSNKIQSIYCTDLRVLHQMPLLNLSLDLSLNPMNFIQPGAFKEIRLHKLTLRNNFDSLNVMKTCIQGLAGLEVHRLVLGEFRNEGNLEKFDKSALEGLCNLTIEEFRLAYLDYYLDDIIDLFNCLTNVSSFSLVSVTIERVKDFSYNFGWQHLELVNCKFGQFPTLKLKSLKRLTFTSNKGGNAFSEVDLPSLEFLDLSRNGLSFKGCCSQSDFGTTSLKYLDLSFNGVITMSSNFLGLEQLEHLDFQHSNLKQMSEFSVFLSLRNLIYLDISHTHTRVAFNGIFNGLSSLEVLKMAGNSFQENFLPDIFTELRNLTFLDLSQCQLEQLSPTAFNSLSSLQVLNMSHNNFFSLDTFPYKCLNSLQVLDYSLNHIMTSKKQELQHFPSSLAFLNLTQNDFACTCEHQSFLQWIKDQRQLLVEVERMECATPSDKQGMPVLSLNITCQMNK
TLR4 (Homo sapiens), sequence (O00206 24-631): as above

- Kd [1]: 64.6 nM
Substance: procathepsin L (pCTS-L) 17-333 (from UniProt P07711)

- Kd [2]: 64.6 nM
Substance: TLR4 (from UniProt O00206)

- Kd [3]: 20.2 nM
Substance: pCTS-L (procathepsin L) (from UniProt P07711)

- Kd [4]: 58.1 nM
- Kd [5]: 58.8 nM
Substance: dermcidin (from UniProt P81605)
